Laboratory results: PMC12480156, “From biophysical interaction to structural modeling: bi-terminal G and TGS domains drive rice OsYchF1-OsGAP1 complex formation” (Botanical Studies, 2025)

T1: GST-OsGAP1 (rice (Oryza sativa), UniProt Q6YWF1 1-165)
T1 construct: also called GST-tagged OsGAP1; source: E. coli BL21 (DE3) pLysS, purified; not shown: GST, N-terminal, kept
T1 sequence (looked up): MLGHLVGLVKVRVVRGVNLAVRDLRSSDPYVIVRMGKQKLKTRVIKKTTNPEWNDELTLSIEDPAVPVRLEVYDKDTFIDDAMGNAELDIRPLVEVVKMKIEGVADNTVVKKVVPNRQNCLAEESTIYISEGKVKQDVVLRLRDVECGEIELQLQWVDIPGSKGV

B1: (His)6-OsYchF1 (G domain) (domain or fragment, rice (Oryza sativa), UniProt Q6Z1J6 1-128, looked up)
chain: MPPKASKKDAAPAERPILGRFSSHLKIGIVGLPNVGKSTFFNIVTKLSIPAENFPFCTIDPNEARVYVPDERFDWLCQLYKPKSEVSAYLEINDIAGLVRGAHAGEGLGNAFLSHIRAVDGIFHVLRA
notes: OsYchF1, rice, G domain, aa 1-128; also called (His)6-G; source: E. coli BL21 (DE3) pLysS, purified; not shown: His6, N-terminal, kept; thioredoxin (Trx), N-terminal, kept; S-tag, N-terminal, kept
B2: (His)6-OsYchF1 (TGS domain) (domain or fragment, rice (Oryza sativa), UniProt Q6Z1J6 303-394, looked up)
chain: HLIYFFTAGPDEVKCWQIRRQTKAPQAAGTIHTDFERGFICAEVMKFDDLKELGSESAVKAAGKYRQEGKTYVVQDGDIIFFKFNVSGGGKK
notes: OsYchF1, rice, TGS domain, aa 303-394; also called (His)6-TGS; source: E. coli BL21 (DE3) pLysS, purified; not shown: His6, N-terminal, kept; thioredoxin (Trx), N-terminal, kept; S-tag, N-terminal, kept

What was measured:
[1] = molecular target: GST-OsGAP1 (rice (Oryza sativa)) (UniProt Q6YWF1); test: ITC; MicroCal ITC200; 400–500 µM (His)6-OsYchF1, its truncated derivatives or (His)6-tag in the syringe titrated into 20–30 µM GST-OsGAP1 or GST-tag in the chamber; 20 mM Tris-HCl pH 7.5, 20 mM NaCl, 1 mM DTT; 25 °C
[2] = molecular target: T1, GST-OsGAP1; test: as above; conditions: both partners purified

Row | Molecule | Kd [1] | dH [1] | stoichiometry N [1] | Kd [2] | dH [2] | stoichiometry N [2]
1 | (His)6-OsYchF1 (No TGS domain) (from UniProt Q6Z1J6 1-302) (domain or fragment) | 98.7 µM | -0.7 kcal/mol | 0.2 |  |  | 
2 | full-length (His)6-OsYchF1 (from UniProt Q6Z1J6 1-394) (natural protein) | 103 µM |  | 0.6 |  |  | 
3 | B1 |  |  |  | 11.9 ± 6.7 µM | -2 ± 1.4 kcal/mol | 0.5 ± 0.7
4 | B2 |  |  |  | 5.1 ± 2.3 µM | -3.4 ± 1.1 kcal/mol | 0.6 ± 0.1
